The text below walks through data of PMC8282004.

For the assay, the target named is hACE2-K31N/K353H (human) (UniProt Q9BYF1). Briefly: flow cytometry on cells. (In flow cytometry, cells or beads pass a laser one at a time.)

As to “recombinant SARS-CoV-2 spike RBD-Fc protein (from UniProt P0DTC2 319-524) (Fc fusion)”, the binding efficiency (percentage of GFP+ cells that bound RBD-Fc) was 7.86%.
